Test results published in the supplement of paper PMC10724198.
± gives the standard deviation of the averaged measurements.

tested on: Saccharomyces cerevisiae; assay: protein stability index of tFT-peptide fusion (C-terminal peptide) (PSI (0-1 scale)); higher = more stable (slower turnover); conditions: genetic background: wild type; temperature: 30 C
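Note: PSI is a weighted mean of sequencing reads over stability bins, variants kept only with over 10 reads, mCherry proximal and sfGFP distal, peptide attached via GGGS linker.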

Row | Sequence | protein stability index
1 | QMSHTGPTTIQS | 0.695 ± 0.023
2 | QNERRLPVGSYA | 0.696 ± 0.06
3 | QNGAEESVSVGT | 0.662 ± 0.042
4 | QNIGPKEESVLA | 0.682 ± 0.035
5 | QNLYLSFLRIKL | 0.624 ± 0.0088
6 | QNQILNKKVIFK | 0.681 ± 0.056
7 | QPGDVWEFGVLL | 0.73 ± 0.027
8 | QPGTPLSPPPSP | 0.49 ± 0.019
9 | QPKEGGRPKKKE | 0.675 ± 0.035
10 | QPRLPLPLSSPV | 0.611 ± 0.071
11 | QPTRADLEAPPR | 0.6858 ± 0.0065
12 | QQDHRSHAHRRL | 0.7047 ± 0.0013
13 | QQPPSSGTPDNH | 0.703 ± 0.027
14 | QRNPQNKDRVQD | 0.663 ± 0.004
15 | QRRGAPTPPACL | 0.748 ± 0.011
16 | QRVWGFRSVFVR | 0.532 ± 0.035
17 | QRWKEGRGHSRQ | 0.686 ± 0.017
18 | QSGLAGIPIPKN | 0.681 ± 0.078
19 | QSKFNKFPIVET | 0.656 ± 0.046
20 | QSPMTTGASERH | 0.623 ± 0.066
21 | QSPSALAEGPDD | 0.641 ± 0.099
22 | QSRAQTFGTSIS | 0.668 ± 0.013
23 | QSYRGIGFRTTM | 0.607 ± 0.049

Row | Sequence | protein stability index
24 | QTGPPDPPLSPP | 0.643 ± 0.014
25 | QTHFRPDYALDW | 0.753 ± 0.064
26 | QTTKEQQKKSYK | 0.665 ± 0.053
27 | QVILQHSLGLLD | 0.707 ± 0.014
28 | QYGARNHPPTTK | 0.742 ± 0.063
29 | QYKRFYGSLVNG | 0.608 ± 0.047
30 | QYLKTKKEGKEF | 0.698 ± 0.024
31 | RAAFNPCYTIDF | 0.729 ± 0.025
32 | RAARGGRSGTRV | 0.643 ± 0.097
33 | RAARVSVVAYPF | 0.682 ± 0.0094
34 | RAAVTDPCNPLL | 0.693 ± 0.0094
35 | RACDQPSGVCNV | 0.669 ± 0.038
36 | RACGVSMRIKGG | 0.695 ± 0.033
37 | RACLDRNNLDLG | 0.605 ± 0.075
38 | RADQGGVVNGEG | 0.732 ± 0.055
39 | RAIGREGILHRA | 0.693 ± 0.094
40 | RAKRMVGQTIQE | 0.765 ± 0.18
41 | RALCGWFAKRMI | 0.637 ± 0.035
42 | RALCISCYVALR | 0.5849 ± 0.00077
43 | RAPSTPSGRPSL | 0.65 ± 0.051
44 | RARAIGVGSGRG | 0.698 ± 0.023
45 | RARCPGGQIKLH | 0.714 ± 0.2
46 | RARQYTTAMIQS | 0.469 ± 0.088

Row | Sequence | protein stability index
47 | RARSFINSFSQS | 0.671 ± 0.018
48 | RASRSPIARPGT | 0.643 ± 0.018
49 | RAVFLCVWDYSG | 0.597 ± 0.13
50 | RAVVTGEGESGG | 0.624 ± 0.0092
51 | RCCGRSRLVVPW | 0.6986 ± 0.0023
52 | RCEGRRIEQSGK | 0.7037 ± 0.0049
53 | RCEWRGSCWGGE | 0.653 ± 0.062
54 | RCGCLRVPTGGG | 0.679 ± 0.075
55 | RCGGEWTGGVWR | 0.845 ± 0.22
56 | RCGGGKWGRGAE | 0.69683 ± 0.00067
57 | RCGPPTAPSLDP | 0.619 ± 0.008
58 | RCPLSFLRCSMA | 0.586 ± 0.018
59 | RCPPLWNPLSPL | 0.697 ± 0.034
60 | RCPPPQPPVRKV | 0.642 ± 0.1
61 | RCPRSPPQPLWT | 0.731 ± 0.03
62 | RCSCNKNGFSSN | 0.607 ± 0.2
63 | RCSLLVVPHSPP | 0.717 ± 0.04
64 | RCYSFTKIRNNL | 0.718 ± 0.13
65 | RDAVLSCARRSQ | 0.752 ± 0.17
66 | RDCSGGRRGLER | 0.601 ± 0.023
67 | RDDDSKDKRTEI | 0.684 ± 0.065
68 | RDLLPRWTWIIW | 0.76 ± 0.11
69 | RDPDTWKLFSLT | 0.687 ± 0.043

Row | Sequence | protein stability index
70 | RDPPLPRRLPSL | 0.706 ± 0.058
71 | RDRMSEGLGDRS | 0.684 ± 0.059
72 | RDSLEKCLFEVQ | 0.703 ± 0.05
73 | RDSQSGVVVKGT | 0.726 ± 0.024
74 | RDTHSEPKPAQY | 0.721 ± 0.0088
75 | RDVRNRARVKRE | 0.693 ± 0.012
76 | REEFHGLKGRGG | 0.671 ± 0.046
77 | REEGGWGEAWRE | 0.726 ± 0.049
78 | REGALVYWGFLG | 0.652 ± 0.018
79 | REKQRYEERLRE | 0.636 ± 0.018
80 | RERTNKKLAKDK | 0.656 ± 0.045
81 | RESGASLWATMR | 0.734 ± 0.015
82 | RESRGAGGGEGG | 0.667 ± 0.033
83 | RESVSPCLVGAV | 0.616 ± 0.056
84 | REWRLVTCSDCL | 0.668 ± 0.023
85 | RFAGLRDVGCFL | 0.695 ± 0.034
86 | RFGRGAVWGLGG | 0.6554 ± 0.0051
87 | RFINRVVAGDRR | 0.681 ± 0.032
88 | RFLLSITSSLVL | 0.666 ± 0.043
89 | RFLVRSFIGWRG | 0.669 ± 0.031
90 | RFPFGPAPPPTP | 0.744 ± 0.042
91 | RFSMVVVERYSC | 0.577 ± 0.0062
92 | RFSVRGARHRCG | 0.693 ± 0.0079

Row | Sequence | protein stability index
93 | RFTIPFSVQRVD | 0.721 ± 0.094
94 | RFYFSLSWSGFC | 0.66 ± 0.077
95 | RFYLLAEDGSST | 0.703 ± 0.017
96 | RFYSKDLVHLST | 0.6656 ± 0.0031
97 | RGALGVVWSGLD | 0.637 ± 0.023
98 | RGARGGRLVCRE | 0.689 ± 0.043
99 | RGARGGSRGGGG | 0.677 ± 0.086
100 | RGARPRTPPSPP | 0.713 ± 0.03
101 | RGCGGGRVAREC | 0.689 ± 0.051
102 | RGCGKGPLLSWF | 0.717 ± 0.0093
103 | RGCRLRCSLPGR | 0.669 ± 0.056
104 | RGCSAVEKARPC | 0.622 ± 0.0067
105 | RGGCLPTCPQET | 0.652 ± 0.026
106 | RGGGEGGKEDSQ | 0.682 ± 0.047
107 | RGGGGGGDCVGA | 0.727 ± 0.018
108 | RGGGRDGQTRGV | 0.6165 ± 0.0045
109 | RGGGVRYGVARR | 0.68 ± 0.059
110 | RGGRLQVGMEAV | 0.6653 ± 0.0022
111 | RGGRMGFYLVCI | 0.636 ± 0.028
112 | RGGSVDCRGNPL | 0.656 ± 0.013
113 | RGGVFGTCGVGG | 0.653 ± 0.035
114 | RGGWYLQKAITP | 0.716 ± 0.047
115 | RGHPRRRPERKA | 0.707 ± 0.09

Row | Sequence | protein stability index
116 | RGHTTYCGPALI | 0.697 ± 0.08
117 | RGIGIQSVAARN | 0.723 ± 0.094
118 | RGIRDQRKSKDK | 0.663 ± 0.029
119 | RGIYSIGASGRS | 0.695 ± 0.033
120 | RGLGCEVGTVEV | 0.768 ± 0.0077
121 | RGLPVLTFPHTP | 0.71 ± 0.0095
122 | RGLRVWWGLVGV | 0.633 ± 0.044
123 | RGPRSSGRKGIR | 0.676 ± 0.042
124 | RGQDGSEGRGPA | 0.653 ± 0.02
125 | RGQSGSLSKLLG | 0.72 ± 0.026
126 | RGRAVGGARKFG | 0.739 ± 0.029
127 | RGRFVVGAGRED | 0.67 ± 0.077
128 | RGRGGGGVVGRW | 0.7119 ± 0.0022
129 | RGRGKVGLWEGS | 0.669 ± 0.067
130 | RGRMGLGAPGGG | 0.615 ± 0.0085
131 | RGRPRRGGGVSG | 0.727 ± 0.047
132 | RGSAPLFVPLSP | 0.7106 ± 0.0069
133 | RGVLRSETCRLS | 0.7104 ± 0.0069
134 | RGWGWGRKVSVG | 0.62 ± 0.069
135 | RGYVGVTQVCKN | 0.695 ± 0.043
136 | RHDMTSGCVSHS | 0.703 ± 0.039
137 | RHGLPPAPILSP | 0.661 ± 0.038
138 | RHILFLLLTPHS | 0.5774 ± 0.0026

Row | Sequence | protein stability index
139 | RHLACFWFRPPW | 0.694 ± 0.018
140 | RHLRSGTRAKVY | 0.678 ± 0.013
141 | RHPALPGPPGSS | 0.698 ± 0.13
142 | RIAEYIDTKCPR | 0.708 ± 0.0074
143 | RICTLCRGGRTP | 0.673 ± 0.03
144 | RIDRDDHLVPNS | 0.626 ± 0.092
145 | RIERIYEIKKNR | 0.68086 ± 7.2e-05
146 | RIIIRNIKKKTE | 0.641 ± 0.023
147 | RILIRVQSSKLR | 0.671 ± 0.09
148 | RILNADSREHSS | 0.775 ± 0.12
149 | RIVASTLKSYLT | 0.68835 ± 0.00068
150 | RIVQQATHVREH | 0.787 ± 0.011
151 | RKEKKMKITKRC | 0.691 ± 0.044
152 | RKEQKGKGKEGG | 0.697 ± 0.024
153 | RKFLCKSPIECS | 0.574 ± 0.015
154 | RKHMCSYIRVSR | 0.723 ± 0.085
155 | RKINQKNNEKNS | 0.648 ± 0.0037
156 | RKIRRLIVKKGI | 0.67 ± 0.022
157 | RKKENRYKIEVK | 0.6799 ± 0.0017
158 | RKKGRKKKQDKN | 0.689 ± 0.023
159 | RKKIKRKNNKEK | 0.685 ± 0.052
160 | RKKKKDKSAIKE | 0.722 ± 0.018
